Values quoted from earlier work as cited in PMC3995210.

Target: dynein intermediate chain (IC) (Drosophila melanogaster) (UniProt Q24246)
Assay: ITC

Chain of UniProt Q24246 (Q24246 whole entry): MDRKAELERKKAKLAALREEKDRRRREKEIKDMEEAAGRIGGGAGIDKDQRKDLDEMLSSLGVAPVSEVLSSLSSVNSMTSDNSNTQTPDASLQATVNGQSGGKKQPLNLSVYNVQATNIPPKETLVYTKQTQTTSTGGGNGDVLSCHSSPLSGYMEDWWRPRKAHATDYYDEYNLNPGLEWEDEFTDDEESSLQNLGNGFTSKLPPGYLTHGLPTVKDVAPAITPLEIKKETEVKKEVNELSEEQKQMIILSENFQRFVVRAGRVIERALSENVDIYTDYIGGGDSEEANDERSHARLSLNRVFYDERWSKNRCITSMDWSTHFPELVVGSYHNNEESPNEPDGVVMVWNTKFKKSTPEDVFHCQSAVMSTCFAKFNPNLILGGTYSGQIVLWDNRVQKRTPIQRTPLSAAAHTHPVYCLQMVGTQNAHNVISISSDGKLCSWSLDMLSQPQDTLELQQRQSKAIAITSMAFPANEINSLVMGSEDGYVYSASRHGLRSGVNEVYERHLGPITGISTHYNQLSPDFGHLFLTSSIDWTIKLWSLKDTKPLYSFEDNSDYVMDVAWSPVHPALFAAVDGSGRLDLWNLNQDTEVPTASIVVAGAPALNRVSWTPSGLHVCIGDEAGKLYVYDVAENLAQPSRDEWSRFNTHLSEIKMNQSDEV

Question: For LC8 (from UniProt Q24117), which Kd is on record?
Answer: Its Kd is 9.8 µM.
